Experimental data taken from US20130288372A1 (Bristol-Myers Squibb, published 2013).
Residue numbers refer to the chain shown, from its start.

T1: Human IL-23 (human, UniProt Q9NPF7 20-189; P29460 23-328)
T1 construct: Heterodimer of p40 and p19; For the crystal it was secreted from insect cells from a bi-cistronic construct; also called interleukin 23; human recombinant IL-23
T1 sequence (looked up) 1: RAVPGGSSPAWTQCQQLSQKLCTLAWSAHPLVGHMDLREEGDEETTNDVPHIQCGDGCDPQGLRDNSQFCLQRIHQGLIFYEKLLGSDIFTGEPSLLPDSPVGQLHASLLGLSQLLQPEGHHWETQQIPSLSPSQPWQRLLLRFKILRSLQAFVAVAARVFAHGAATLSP
T1 sequence (looked up) 2: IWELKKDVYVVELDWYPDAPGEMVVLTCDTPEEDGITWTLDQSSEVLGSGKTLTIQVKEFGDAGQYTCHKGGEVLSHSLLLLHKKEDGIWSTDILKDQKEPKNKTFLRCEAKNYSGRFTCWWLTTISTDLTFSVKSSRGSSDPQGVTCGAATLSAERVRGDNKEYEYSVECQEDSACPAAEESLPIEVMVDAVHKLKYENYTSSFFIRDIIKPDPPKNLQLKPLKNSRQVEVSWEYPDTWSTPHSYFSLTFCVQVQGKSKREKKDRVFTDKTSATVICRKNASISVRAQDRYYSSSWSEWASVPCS

B1: Anti-IL-23 Adnectin 1454B08 (designed binder)
chain: MGVSDVPRDLEVVAATPTSLLISWEHDYPYRRYYRITYGETGGNSPVQEFTVPKDVDTATISGLKPGVDYTITVYAVTSSYKYDMQYSPISINYRTEIDKPSQHHHHHH
notes: 10Fn3-based Adnectin expressed in E. coli followed by a HIS6 tag; Fn3 domain is positions 3-96 of the entry; also called Parent
B2: 1454B08 P87→A (designed binder)
chain: B1 chain with P89A
notes: Point variant of 1454B08
B3: 1454B08 T35→D (designed binder)
chain: B1 chain with T37D
notes: Point variant of 1454B08; also called Thr35→Asp
B4: 1454B08 T35→E (designed binder)
chain: B1 chain with T37E
notes: Point variant of 1454B08
B5: 1454B08 T35→N (designed binder)
chain: B1 chain with T37N
notes: Point variant of 1454B08
B6: 1454B08 T35→Q (designed binder)
chain: B1 chain with T37Q
notes: Point variant of 1454B08
B7: 1454B08 V45→D (designed binder)
chain: B1 chain with V47D
notes: Point variant of 1454B08
B8: 1454B08 V45→E (designed binder)
chain: B1 chain with V47E
notes: Point variant of 1454B08
B9: 1454B08 V45→N (designed binder)
chain: B1 chain with V47N
notes: Point variant of 1454B08
B10: 1454B08 V45→Q (designed binder)
chain: B1 chain with V47Q
notes: Point variant of 1454B08
B11: 1454B08 V75→K (designed binder)
chain: B1 chain with V77K
notes: Point variant of 1454B08
B12: 1454B08 V75→Q (designed binder)
chain: B1 chain with V77Q
notes: Point variant of 1454B08
B13: 1454B08 V75→Y (designed binder)
chain: B1 chain with V77Y
notes: Point variant of 1454B08
B14: 1454B08 Y28→A (designed binder)
chain: B1 chain with Y30A
notes: Point variant of 1454B08
B15: 1454B08 Y73→A (designed binder)
chain: B1 chain with Y75A
notes: Point variant of 1454B08
B16: 1454B08 Y73→N (designed binder)
chain: B1 chain with Y75N
notes: Point variant of 1454B08
B17: 1454B08 Y73→Q (designed binder)
chain: B1 chain with Y75Q
notes: Point variant of 1454B08; also called Tyr 73→Gln
B18: 1454B08 Y73→R (designed binder)
chain: B1 chain with Y75R
notes: Point variant of 1454B08
B19: 1454B08 Y81→A (designed binder)
chain: B1 chain with Y83A
notes: Point variant of 1454B08
B20: Anti-IL-23 Adnectin 1241A05 (designed binder)
chain: B1 chain with E25N, D27N, P29S, R31Y, K54R, D55G, D57A
notes: 10Fn3-based Adnectin expressed in E. coli followed by a HIS6 tag; Fn3 domain is positions 3-96 of the entry; also called Clone 1241A05
B21: Anti-IL-23 Adnectin 1454B05 (designed binder)
chain: B1 chain with E25Y, V56E, D57E
notes: 10Fn3-based Adnectin expressed in E. coli followed by a HIS6 tag; Fn3 domain is positions 3-96 of the entry
B22: Anti-IL-23 Adnectin 1454C03 (designed binder)
chain: B1 chain with E25D, H26M, D27Y, R31S, D55E, V56Y
notes: as for B21
B23: Anti-IL-23 Adnectin 1454D02 (designed binder)
chain: B1 chain with E25D, K54R, D55N, V56I, D57N
notes: 10Fn3-based Adnectin expressed in E. coli followed by a HIS6 tag (captured by anti-His mAb in SPR)
B24: Anti-IL-23 Adnectin 1454E09 (designed binder)
chain: B1 chain with E25M, K54M, D55E, V56E
notes: as for B21
B25: Anti-IL-23 Adnectin 1454F05 (designed binder)
chain: B1 chain with E25Y, H26M, D27H, R31S, D55Q, V56H
notes: as for B21
B26: Anti-IL-23 Adnectin 1454F07 (designed binder)
chain: B1 chain with E25Y, D27M, P29S, K54R
notes: as for B21
B27: Anti-IL-23 Adnectin 1454F09 (designed binder)
chain: B1 chain with E25D, D27N, P29S, K54R, D55H, V56T
notes: as for B21
B28: Anti-IL-23 Adnectin 1454H11 (designed binder)
chain: B1 chain with K54R, D55E, V56D, D57S
notes: as for B21
B29: Anti-IL-23 Adnectin 1866F10 (designed binder)
chain: B1 chain with E25D, K54R, D55N, V56I, D57N, S80T, Y81L, M85I
B30: Anti-IL-23 Adnectin 1866C02 (designed binder)
chain: B1 chain with E25D, D27N, P29T, Y30W, R31Y, K54R, D55G, M85I, S88P
B31: Anti-IL-23 Adnectin 1866D11 (designed binder)
chain: B1 chain with E25D, M85I, S88P

Target: T1, Human IL-23
Test: competitive ELISA, ratio of IC50 against parent 1454B08
Description: (§1) Adnectin variants were tested by ELISA for their ability to bind IL-23 in a manner that was competitive with the binding site of the native IL-23 receptor (IL-23R). Recombinant human IL-23R-Fc (R&D Systems, Minneapolis, Minn.) was coated overnight at 4° C. on a NUNC® Maxisorp plate (Thermo Fisher Scientific, Denmark) with 50 μL at 4 μg/mL in PBS. All washing was performed with PBST (PBS with 0.05% (w/v) Tween) using an automated plate washer (Biotek, Vt.). OptEIA buffer (BD Bioscience, CA) was used as block and assay diluent. Adnectin dilutions ranging from 200 nM to 28 pM were pre-incubated with 1 nM IL-23 for an hour before transferring to blocked IL-23R-Fc coated plates for 30 minutes. Bound IL-23 was detected via anti-IL-23 (GeneTex, CA) and anti-mouse-HRP (R&D Systems, MN) followed by TMB (3,3′,5,5′-tetramethylbenzidine) (BD Bioscience, CA) addition. Typical development time was 10 minutes. […] IC50s were generated from the average of four runs with an in-house curve fitting application.

Row | Molecule | Activity (parent/mutant)
1 | B1 | 1
2 | B2 | 0.1
3 | B3 | 0.02
4 | B4 | 1.7
5 | B5 | 0.6
6 | B6 | 1
7 | B7 | 1.2
8 | B8 | 1.9
9 | B9 | 1.8
10 | B10 | 2.9
11 | B11 | 0.2
12 | B12 | 0.4
13 | B13 | 0.4
14 | B14 | 0.08
15 | B15 | 1.5
16 | B16 | 0.8
17 | B17 | 3.8
18 | B18 | 0.8
19 | B19 | 0.03

Target: T1, Human IL-23
Test: competitive ELISA: Adnectin pre-incubated with 1 nM IL-23, binding to coated IL-23R-Fc
Description: as §1

Row | Molecule | IC50 [nM]
20 | B1 | 1
21 | B2 | 8.3
22 | B3 | 49
23 | B4 | 0.6
24 | B5 | 1.7
25 | B6 | 1
26 | B7 | 0.83
27 | B8 | 0.51
28 | B9 | 0.54
29 | B10 | 0.34
30 | B11 | 5.7
31 | B12 | 2.3
32 | B13 | 2.2
33 | B14 | 13
34 | B15 | 0.65
35 | B16 | 1.2
36 | B17 | 0.26
37 | B18 | 1.2
38 | B19 | 35

Target: T1, Human IL-23
Test: SPR (Biacore T100), Adnectin captured by anti-His mAb, IL-23 injected, 25 C
Description: The anti-His antibody, mAb050 (RnD Systems, MN) was diluted to 20 μg/mL in acetate, pH 5.0 and immobilized to ˜9000 RU on flow cells 1 and 2 of a CM5 chip surface (GE Healthcare, Piscataway, N.J.) according to the manufacturer's instructions. All surface plasmon experiments were conducted in HBS-EP (10 mM Hepes 150 mM NaCl 3 mM EDTA 0.05% Surfactant P20) at 25° C. IL-23 was injected over anti-His mAb captured Adnectins for 2 minutes followed by a 10 minute dissociation phase. Kinetic parameters were calculated using the T100. Biaevaluation.

Row | Molecule | Kd [nM] | koff [s⁻¹] | kon [M⁻¹ s⁻¹]
39 | B1 | 3.72 | 0.000409 | 110000
40 | B20 | 32.6 | 0.000236 | 7280
41 | B21 | 2.27 | 0.000677 | 298000
42 | B22 | 3.91 | 0.000468 | 120000
43 | B23 | 9.57 | 0.000438 | 45700
44 | B24 | 10.1 | 0.000569 | 56600
45 | B25 | 4.75 | 0.000525 | 111000
46 | B26 | 9.43 | 0.000447 | 47400
47 | B27 | 7.45 | 0.000928 | 125000
48 | B28 | 2.8 | 0.000227 | 81000

Target: T1, Human IL-23
Test: cell-based or functional assay

Row | Molecule | pSTAT3 IC50 (nM)
49 | anti-p19 polyclonal antibody (AF1716) | 36.5
50 | B29 | 0.06
51 | B30 | 0.03
52 | B31 | 0.03
53 | B1 | 0.3
54 | B20 | 30.7
55 | B22 | 0.44
56 | B23 | 0.48
57 | B28 | 0.45
